Measured values published in PMC8201785.

Experiments:
[1] = target: CA09 HA; assay: BLI
[2] = target: PR34 HA; assay: BLI

Substance: MEDI8852
- Kd [1]: 0.502 nM
- koff [1]: 0.000147 s⁻¹
- Kd [2]: 1.36 nM
- koff [2]: 0.00023 s⁻¹
